Data on 19 sequences can be found in a protein production outcome set (Wang et al. 2014).

The series can be described thus: label from the status in PepcDB records.

On to “MAEDKTKPSELDQGKYDADDNVKIICLGDSAVGKSKLMERFLMDGFQPQQLSTYALTLYKHTATVDGRTILVDFWDTAGQERFQSMHASYYHKAHACIMVFDVQRKVTYRNLSTWYTELREFRPEIPCIVVANKIDADINVTQKSFNFAKKFSLPLYFVSAADGTNVVKLFNDAIRLAVSYKQNSQDFMDEIFQELENFSLEQEEEDVPDQEQSSSIETPSEEAASPHS”, for which the protein production entry is “not failed”. For “MAEEAALNFADFYDAELALHNAHFRVTAAVGRSDRVLDVGCGAGQTTRDAARAAEAGRAHGIDLSATMLEIARRRSAEEGLPNATFELADAQNYHFAKGEFDLCISRFGVMFFADPAVAFANIANAVRPGGRFIFMVWQGRDHNEWATAIHEALDPDSTGPVAAGKAFSLSETSVTSGLLETAGFTAIEFREINEPVFYGPDPETALVTIQTFENVKNALDRPATTAEIRARLLDMLEAHQTPHGVQFDSRAWLITGGRYGDSPPCFIGDFRSA”, the protein production result is “failed”.

Turning to “MAEEAKAKGNAAFSSGDFTTAINHFTEAIALAPTNHVLFSNRSAAHASLHQYAEALSDAKETIKLKPYWPKGYSRLGAAHLGLNQFELAVTAYKKGLDVDPTNEALKSGLADAEASVARSRAAPNPFGDAFQGPEMWTKLTSDPSTRGFLQQPDFVNMMQEIQKNPSSLNLYLKDQRVMQSLGVLLNVKFRPPPPQGDEAEVPESDMGQSSSNEPEVEKKREPEPEPEPEVTEEKEKKERKEKAKKEKELGNAAYKKKDFETAIQHYSTAIEIDDEDISYLTNRAAVYLEMGKYNECIEDCNKAVERGRELRSDYKMVARALTRKGTALTKMAKCSKDYEPAIEAFQKALTEHRNPDTLKRLNDAERAKKEWEQKQYFDPKLGDEEREKGNDFFKEQKYPEAIKHYTEAIKRNPNDHKAYSNRAASYTKLGAMPEGLKDAEKCIELDPTFSKGYSRKAAVQFFLKEYDNAMETYQAGLEHDPSNQELLDGVKRCVQQINKANRGDLTPEELKERQAKGMQDPEIQNILTDPVMRQVLSDLQENPSAAQKHMQNPMVMNKIQKLISAGIVQMK”, the protein production entry is “failed”. To “MAEHGETTEDGDSEIDYEFLAELSALLGVDAVQLAKSQEEEEHKERMKMKKGFNSQMRSEAKRLKTFETYDTFRSWTPQEMAAAGFYHTGVRLGVQCFCCSLILFGNSLRKLPIERHKKLRPECEFLLGKDVGNIGKYDIRVKRPEKMLRGGKARYHEEEARLESFEDWPFYAHGTSPRVLSAAGFVFTGKRDTVQCFSCGGSLGNWEEGDDPWKEHAKWFPKCEFLQSKISSEEIAQYIQGYGGFVHVTGEHFVNSWVRRELPMVSGRKDIVQCFSCGGCMENWAEGDDPIQEHNKFFPK” belongs “failed”; to “MAEIDYKKVTGMIHSTESFGSVDGPGIRFIIFMQGCKMRCQYCHNPDTWEMETNNSKERTVEDVLKEALRYKHFWGKDGGITVSGGEAMLQIDFITALFIEAKKLGIHTTLDTCGFAYRATPEYHAILEKLLDVTDLVLLDLKEIDSEQHKIVTRQSNKNILQFARYLSDRGTPVWIRHVLVPGLTDIDDHLKRLGEFVQTLDNVDKFEVLPYHTMGEFKWRELGIPYPLAGVKPPTPERVKNAKDIMKTESYTEYLKRIQN”, “not failed”; to “MAEIIDKTLNMLVTGQRARVIQIKGKGNSRKRLLEMGMVPGTVLSVTKKAPLGDPVDFKLKGYNLSLRKQEAEMIVVEPLEG”, “failed”. “MAEKKKKNKKQLSSFSILFIILIVLGIVTVLLNGQPFTPREIDGKMVDHVVGAKLSDIIMAPFNGFKDAIEINIFILVLGGFLNIVTQTGALEAGIQSVVKKLKGNELKIIPILMILFSIGGSTYGMAEETIPFYGLLSATMVAAGFDTFVAVGTVLLGAGSGVIGSTVNPFSTGVAMDALRGIGIQPNTGIILIVGAILWAASTSYSIFIVMRYAKKVKADKGSTILSLQEQEDMEKTYGQAASKEMPFTNRHKKILMVFAFCFVIMIVSLIPWNDFGVTIFKGWTSVLTGNSFGDWYFGDLAMWFFLLGIIAALIGRFTEKETIEAFIDGAKDMLSVVLIIVVARGASVLMSKTYLDSFILDKAAGLLQGLSPVLFVIGAFVLYLGLSFLIPSTSGLAYVSIPVMGALAKNIGLSPEVMVMIFASGCGLINLITPTSGVVMGGLEISKVQYATWTKFMAKPMIVLGLINLIILIGAMLLFS”: the protein production entry is listed as “failed”.

As for “MAEKPKLHYFNARGRMESTRWLLAAAGVEFEEKFIKSAEDLDKLRNDGYLMFQQVPMVEIDGMKLVQTRAVLNYIASKYNLYGKDIKERALIDMYIEGIADLGEMILLLPVCPPEEKDAKLALIKEKIKNRYFPAFEKVLKSHGQDYLVGNKLSRADIHLVELLYYVEELDSSLISSFPLLKALKTRISNLPTVKKFLQPGSPRKPPMDEKSLEEARKIFRF”, the protein production result was “not failed”. The result for “MAELEKTFALIKPDAVRAGKAQEIMQLIELNGFTIIAKQKLQLTRARAEEFYGEHKGKEFFPKLVNFMTSGPIWALVLAKPGAILAWRALMGPTNVFKARAEQPKCLRALYGTDGTQNATHGSDSPISAAREIKFFFPTLSGDPTIYAEPTAAAEYITKRIQPALAKALAALAREKPSADKFEAITFVAGYLLQNNPNKPKV” reads “not failed”; that for “MAELKSLAKDTAIYGASSIIGKFLNYFLVPIYTFSLPAASGGYGVITKMYAIVALLLVVLTFGMETGFFRFANKGDDDPKKVYSVSLLMVGGVSLLFLLLCLVFLNPIAGLMGYSEHPWYLGMMLIVLAMDAIQAIPFAYLRYKKRPIKFAGLKLLFIFVSILLNILYFVVMKGDDVGVAFLINLICSFVVMLGLIPEFREFRYCPDRLLMKRMLYYSFPILILGVAGIVNQVGDKIIFPFVYPDKVEADVQLGIYSAATKIAMIMAMITQAFRFAYEPFVFGKSKDKDNKRIYAQAMKFFIIFTLLAFLAVMFYLDILRYIIAEDYWEGLRVVPIVMIAEMFMGIYFNLSFWYKLTDDTRWGAYFSIIACLTVVLMNIFLIPVYGYVACAWAGFTGYAIAMLLSYFVGQKKYPIAYDLRGIGCYVGLAIILYLIGEWIPIHNTVLLLAFRTVLLLLFIAYIIKRDLPLSQIPVINRIIKKK”, “not failed”; that for “MAELQMLLEEEIPGGRRALFDSYTNLERVADYCENNYIQSADKQRALEETKAYTTQSLASVAYLINTLANNVLQMLDIQASQLRRMESSINHISQTVDIHKEKVARREIGILTTNKNTSRTHKIIAPANLERPVRYIRKPIDYTILDDIGHGVKVSTQNMKMGGLPRTTPPTQKPPSPPMSGKGTLGRHSPYRTLEPVRPPVVPNDYVPSPTRNMAPSQQSPVRTASVNQRNRTYSSSGSSGGSHPSSRSSSRENSGSGSVGVPIAVPTPSPPSVFPGHPVQFYSMNRPASRHTPPTIGGSLPYRRPPSITSQTSLQNQMNGGPFYSQNPVSLAPPPPSILQVTPQLPLMGFVARVQENISDTPPPPPPVEEPVFDESPPPPPPPEDYEEEEAAVVEYSDPYAEEDPPWAPRSYLEKVVAIYDYTKDKEDELSFQEGAIIYVIKKNDDGWYEGVMNGVTGLFPGNYVESIMHYSE”, “not failed”. With “MAEPGIDKLFGMVDSKYRLTVVVAKRAQQLLRHGFKNTVLEPEERPKMQTLEGLFDDPNAETWAMKELLTGRLVFGENLVPEDRLQKEMERIYPGEREE”, the protein production entry is listed as “not failed”. The result for “MAEPRENLMDWLRDAHAMEQQAEQMLKAQAARIEHYPKLKARIEQHLEETLGQQRLVEASIERLGGSPSVVKDAMGKMAAFGQAMGGMTTSDEIVKGAMASYVFENLEIATYTALLGAAKTVGDVETQRMCEQILPQEEAMAKWLLEHLPELTEEFLVRDATPGVTAKK” reads “failed”. Take “MAEPSQAPTPAPAAQPRPLQSPAPAPTPTPAPSPASAPIPTPTPAPAPAPAAAPAGSTGTGGPGVGSGGAGSGGDPARPGLSQQQRASQRKAQVRGLPRAKKLEKLGVFSACKANETCKCNGWKNPKPPTAPRMDLQQPAANLSELCRSCEHPLADHVSHLENVSEDEINRLLGMVVDVENLFMSVHKEEDTDTKQVYFYLFKLLRKCILQMTRPVVEGSLGSPPFEKPNIEQGVLNFVQYKFSHLAPRERQTMFELSKMFLLCLNYWKLETPAQFRQRSQAEDVATYKVNYTRWLCYCHVPQSCDSLPRYETTHVFGRSLLRSIFTVTRRQLLEKFRVEKDKLVPEKRTLILTHFPKFLSMLEEEIYGANSPIWESGFTMPPSEGTQLVPRPASVSAAVVPSTPIFSPSMGGGSNSSLSLDSAGAEPMPGEKRTLPENLTLEDAKRLRVMGDIPMELVNEVMLTITDPAAMLGPETSLLSANAARDETARLEERRGIIEFHVIGNSLTPKANRRVLLWLVGLQNVFSHQLPRMPKEYIARLVFDPKHKTLALIKDGRVIGGICFRMFPTQGFTEIVFCAVTSNEQVKGYGTHLMNHLKEYHIKHNILYFLTYADEYAIGYFKKQGFSKDIKVPKSRYLGYIKDYEGATLMECELNPRIPYTELSHIIKKQKEIIKKLIERKQAQIRKVYPGLSCFKEGVRQIPVESVPGIRETGWKPLGKEKGKELKDPDQLYTTLKNLLAQIKSHPSAWPFMEPVKKSEAPDYYEVIRFPIDLKTMTERLRSRYYVTRKLFVADLQRVIANCREYNPPDSEYCRCASALEKFFYFKLKEGGLIDK”: the protein production result is given as “failed”. Take “MAESIFRKLRDGGEEGELAPALTIEETVASPFGLDVSGYLLTNLSSSILAGKSSSQGLVLITFSRSPSFYLQLLKQKGIVVSSSSKWIRILDCYTDPLGWIDQSSTSFSEGSSLIKLHKCVSDLKKLFSSIIEAGRVRSLSKGLYEIKSDCFGAELVGTGKTRFCVAIDSKREVIIYLNFESAQISSVFWSLNTDLHQEKVTNALEYISTMKANLEPLCPSSDGQRNALENLFSVHQDFGKGRFHVRFKLRKGRVRVMSEEYHVDQSGINFSPISSVDTVIAATKSLLPKASYLDLLFNYLVQFNLQLSEKERVEKEKVVLPFEHQDDGKSNEIYDGRRSLVDGKIETTPLSSMELQTDVVSSGKGGEIIYFRDSDDEHPDSDEDPDDDLDI”: the protein production result was “not failed”. The result for “MAESPRRETLIGGAVVLLGVALLAATSINRHDASGQAGAYQVEAVFNRTDGIGIGSPVRLAGIPIGRIVGHKLDPEYRAIVTMRLDLPNELPDDTAAKIQTDGLLGSKYIELVSLGGGYGTIAPGGRLDYSQDSVIVEDLLVKIVAMAKIKRGLDPDIPAAEQQKAKAASHPQAPPPGGAGDPGDPFGGGAVAPPEVNPFAPGPFEDDPPPPEPGVFSPDPGRDGVSEPPPAQDTRHDMRTNTLNDTAGTAPGAVTLASLPAVQADVEEGR” reads “failed”; that for “MAESTIITGQFVRISQVPASLGERILARIIDYFLLFIYILATSYILGKLNIHAFSGSTFFLLFLFIYLPVLCYSLLCEVFNQGQSAGKKLMNIRVVKADGTTPSLSAYLLRWLLYGIDVTITGGLGVLVILLTKNSQRLGDLAAGTMVIKEKNYRKIQVSLDEFDYLTKGYHPSFPSAADLSLEQINVISKALELHHKDRTRHIAQLAPKVRALLSVDQTNINDEKFLQTVVRDYQYYALEEI”, “failed”. As for “MAETAPLRVQLIAKTDFLAPPDVPWTTDADGGPALVEFAGRACYQSWSKPNPKTATNAGYLRHIIDVGHFSVLEHASVSFYITGISRSCTHELIRHRHFSYSQLSQRYVPEKDSRVVVPPGMEDDADLRHILTEAADAARATYSELLAKLEAKFADQPNAILRRKQARQAARAVLPNATETRIVVTGNYRAWRHFIAMRASEHADVEIRRLAIECLRQLAAVAPAVFADFEVTTLADGTEVATSPLATEALEHHHHHH”, the protein production entry was “not failed”. On to “MAETIQNFLTEYYSIAIPLSILINIIISLLGFIPSIFLTAINIQLFGVTNGTVISIAGEALGAIISFYIYRMGLQKFTHDKVNKYPKVERLLYVEGREAFLLVLSFRLIPFIPSSIVTLFAALGKMSLLSFSIASTIGKIPALLIEVYSAYHVMNGTNEAKWIVTIAGCIGLYYLWKKWRKK”, for which the protein production result is listed as “failed”.
